# Patent publication US12552866B2, “Internalizing binding molecules targeting receptors involved in cell proliferation or in cell differentiation” (LinXis B.V., priority 2019, dated 2026)
# B1: 13F11-13E8: biparatopic anti-IGF2R VHH construct, 13F11 and 13E8 fused with (Gly-Gly-Gly-Gly-Ser)3 linker (protein)
# chain: EVQLVESGGRLVQPGDSLRLSCAASGRTFSDNAMGWFRQAPGKERRFVAGISWAGGSTYYSDSVKGRFTISRDNAKNTVYLQMNSLKPEDTAVYYCAAGLRAWVQRMPKDYNYWGQGTQVTVSSGGGGSGGGGSGGGGSEVQLVESGGGLVQAGGSLRLSCAASRSISPMGWYRQAPGKQRELVAIMPSSGPPIYADSVQGRFTISRDNAKNTVYLQMNSLKPEDTAVYYCNVGGGYWGQGTQVTVSS
# modifications: left off: small tags and cut ends
# notes: biparatopic anti-IGF2R VHH construct, 13F11 and 13E8 fused with (Gly-Gly-Gly-Gly-Ser)3 linker
# Key:
# [1] = system: rIGF2R expressing SCC cells; experiment: Kinetic internalization assay on rIGF2R expressing SCC cells; type: cell-based, rat; settings: 10 nM IRD800CW conjugate, 37° C., up to 12 minutes
# Method: (§1) (FIG. 10D). […] The differences in internalization are possibly related to the differences in IGF2R expression levels on the target cells. […] Summarizing, biparatopic 13F11-13E8 clearly internalizes in cells expressing hIGF2R on the cell surface. The rate of internalization (endocytic rate constant, ke) of biparatopic constructs 13F11-13E8 and 13E8-13F11 was determined with a kinetic internalization assay on SCC-VII cells transfected with hIGF2R and rIGF2R. Briefly, 10 nM of IRD800CW conjugated 13F11-13E8 or 13E8-13F11 (conjugation method as described in example 9.2) was added to hIGF2R expressing SCC cells or rIGF2R expressing SCC cells and incubated at 37° C. for different time points up to 12 minutes. Internalization was then purposely halted by putting the cells on ice. Subsequently, cells were washed with cold PBS and the non-internalized VHH construct (bound fraction) was separated from the internalized construct (internalized fraction) using an acid-wash, as described above, after which the fluorescence of both fractions were measured. Both constructs internalize with similar endocytic rate constants (ke around 1.5 min-1) in the hIGF2R expressing SCC cells (FIG. 17). Internalization was also observed in rIGF2R expressing SCC cells as a clear increase in fluorescence over time can be shown in FIG. 17 (ke around 0.7 min-1).
# [2] = system: mock transfected NIH 3T3 2.2 cells; experiment: Internalization in mock transfected NIH 3T3 2.2 cells; type: cell-based; settings: 25 nM VHH conjugated to Alexa Fluor 647
# Method: (§2) To assess if monovalent 13F11 and biparatopic 13F11-13E8 are internalized in the hIGF2R expressing cells, A549 cells (FIG. 16A) and NIH 3T3 2.2 cells transiently transfected with hIGF2R (FIG. 16B) were incubated with 25 nM VHH conjugated to Alexa Fluor 647 (conjugation method as described in example 9.2). A Mouse anti-IGF2R mAb was included to detect IGF2R expression on the hIGF2R transfected cells NIH 3T3 2.2 (FIG. 16B, right column), the mAb was detected with a goat anti-mouse mAb conjugated to Alexa Fluor 555. Additionally, mock transfected NIH 3T3 2.2 cells were incubated with 13F11 and 13F11-13E8 (FIG. 16C). […]
# (§3) (FIG. 10D). […] The rate of internalization (endocytic rate constant, ke) of biparatopic constructs 13F11-13E8 and 13E8-13F11 was determined with a kinetic internalization assay on SCC-VII cells transfected with hIGF2R and rIGF2R. […] Subsequently, cells were washed with cold PBS and the non-internalized VHH construct (bound fraction) was separated from the internalized construct (internalized fraction) using an acid-wash, as described above, after which the fluorescence of both fractions were measured. […] Internalization was also observed in rIGF2R expressing SCC cells as a clear increase in fluorescence over time can be shown in FIG. 17 (ke around 0.7 min-1).
# activated HSCs LX-2 = experiment: Internalization in living LX-2 cells with pHrodo red conjugates; type: cell-based, human; settings: 50 nM pHrodo-red conjugate
# From the text: Internalization of monovalent 13F11 and biparatopics 13F11-13E8 and 13E8-13F11 in living activated HSCs LX-2 was visualized using the pHrodo pH dependent probe (ThermoFisher Scientific). The pH probe becomes more fluorescent as the pH of the surroundings decreases accordingly. Endosomes and lysosomes have a pH maintained at 6.5 and 4.5, respectively, compared to cytoplasmic pH of 7.0, and thus internalization of a VHH-pHrodo construct can be visualized when it internalizes via the endosomal pathway. LX-2 cells were incubated at 37° C. for 2 hours with 50 nM of pHrodo-red conjugated 13F11, 13F11-13E8 and 13E8-13F11 (conjugation method as described in example 9.2). Images were taken at 5 min. intervals using a wide-field PEXScope microscope (Nikon) with a mCherry filter and 40× oil objective. […] Additionally, both internalized 13F11-13E8 and 13E8-13F11 accumulate into perinuclear compartments (endosomes/lysosomes).
# hIGF2R-ECD = target: T1, hIGF2R-ECD (Homo sapiens, UniProt P11717); experiment: Binding assay / titration ELISA on recombinant hIGF2R-ECD; settings: construct conjugated to Alexa Fluor 647, direct read out; KD+SEM, n=2; read-out: calculated affinity (KD)
# T1 construct: recombinant human extracellular domain of IGF2R (hIGF2R-ECD)
# Method: The 15 unique hIGF2R binders (Example 1.1, FIG. 2) were produced and purified as described in examples 2 and 3. The apparent affinities were determined with binding assays on hIGF2R-ECD. Briefly, three-fold serial VHH dilutions, starting from 1 μM, were added onto hIGF2R-ECD coated plates. After 2 hours of incubation, plates were washed and bound VHH was detected using a VHH-specific IgG antibody, followed by an IRD800CW-conjugated IgG-specific antibody. […] VHH 13F11 was also produced with a C-terminal free cysteine and conjugated using maleimide chemistry to Alexa Fluor 647 (13F11-A647 in FIG. 8A, conjugation method as described in example 9.2). A titration ELISA (direct read out at 647 nm) with this construct was carried out on hIGF2R-ECD to determine whether the affinity was affected after site directed conjugation (FIG. 8B). The KD and Bmax were calculated in Graphpad (version 8.3), using one-site specific binding analysis (FIG. 8C).
# Based on their high affinity and binding to non-overlapping receptor epitopes, VHHs 13F11 and 13E8 were selected for the design of biparatopic and bivalent VHH constructs. Two VHHs were fused with a flexible linker, consisting of three Gly-Gly-Gly-Gly-Ser repeats (FIG. 8A). The sequences were codon optimized for expression in E. coli and obtained as synthesized DNA fragments from GeneArt. The DNA fragments encoding VHHs were cloned into a vector pET28-based vector introducing a C-terminal free cysteine for site-directed conjugation and His6 tag for IMAC purification (FIG. 8A). The constructs were produced and purified as described in example 3. The constructs were conjugated to Alexa Fluor 647 (conjugation method as described in example 9.2) and titration ELISAs on recombinant hIGF2R-ECD (as described in example 4.1) were performed to determine the KD and Bmax (calculated in Graphpad (version 8.3), using one-site specific binding analysis) (FIG. 8C).
# Next, 13F11-13E8 was genetically re-engineered to include an in vivo half-life extender in the form of an albumin binding domain (ABD) as described by Johansson et al (Structure, specificity, and mode of interaction for bacterial albumin-binding modules, J. Biol. Chem. 2002 (277): 8114-8120) and subsequently produced and purified as described in Example 3. Subsequently, 13F11-13E8-ABD was conjugated to IRDye800CW (F11E8-ABD-IRD800, conjugation method as described in example 9.2) and the binding affinities of the biparatopic VHH as well as the ABD unit was determined. […] The binding affinity (KD) of F11-E8-ABD-IRD800 to rat serum albumin (RSA) was 30 nM and to mouse serum albumin (MSA) and human serum albumin (HSA) the binding affinity was approximately 200 nM.
# [3] = system: NIH 3T3 2.2 cells transiently transfected with hIGF2R; experiment: Internalization in NIH 3T3 2.2 cells transiently transfected with hIGF2R; type: cell-based, human; settings: 25 nM VHH conjugated to Alexa Fluor 647
# Method: as §2, §3
# [4] = In vivo pharmacokinetics in healthy Sprague-Dawley rats (serum ELISA); design: species or system rat; settings: rat, i.v., approximately 3 mg/kg; LOD approximately 20 nM
# Method: The in vivo pharmacokinetic properties of 13F11-13E8-ABD was compared to 13F11-13E8 without the ABD moiety in healthy Sprague-Dawley rats. In brief, rats were dosed intravenously with approximately 3 mg/kg body weight and blood samples were taken at different time points and the concentration of the VHH constructs were determined using an ELISA on immobilized hIGF2R-ECD.
# [5] = system: A549 cells (IGF2R positive); experiment: Internalization in A549 cells (acid wash, confocal); type: cell-based, human; settings: 25 nM VHH conjugated to Alexa Fluor 647
# Method: as §2, §3
# [6] = system: hIGF2R expressing SCC cells; experiment: Kinetic internalization assay on hIGF2R expressing SCC cells; type: cell-based, human; settings: 10 nM IRD800CW conjugate, 37° C., up to 12 minutes
# Method: as §1
molecule,measurement,setting,value
B1,endocytic rate constant (ke),[1],around 0.7 min-1
same,internalization in mock transfected NIH 3T3 2.2 cells,[2],did not internalize
same,intracellular fluorescence compared to the monovalent construct,"activated HSCs LX-2; 37° C., from 15 min. onwards",more pronounced increase in intracellular fluorescence
same,rate of internalization compared to 13E8-13F11,activated HSCs LX-2; 40-min. time period,higher rate of internalization
same,Kd,hIGF2R-ECD,2.5 ± 1.87 nM
same,internalization in hIGF2R transfected NIH 3T3 2.2 cells,[3],did internalise
same,clearance from circulation,[4],could not be detected anymore within two hours after injection
same,internalization in A549 cells,[5],clearly internalized
same,endocytic rate constant (ke),[6],around 1.5 min-1
